From EP4368203A1 (Wuhan Neurophth Biotechnology Limited Company, dated 2024)

Target: T1, rat VEGF (in rat serum) (rat, UniProt P16612-2 27-190, limits assumed)
T1 construct: also called VEGF in rat serum samples
T1 sequence (looked up): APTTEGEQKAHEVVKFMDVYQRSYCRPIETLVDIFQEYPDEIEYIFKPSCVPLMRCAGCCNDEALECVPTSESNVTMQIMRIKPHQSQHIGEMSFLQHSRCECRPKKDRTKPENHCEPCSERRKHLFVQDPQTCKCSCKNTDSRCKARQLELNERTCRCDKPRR
Test: Western blot, cell supernatant as primary antibody

B1: anti-VEGF Fab expressed by the MDR6 plasmid (culture supernatant of transfected cells) (Fab, V domains shown)
VH: EVQLVESGGGLVQPGGSLRLSCAASGYDFTHYGMNWVRQAPGKGLEWVGWINTYTGEPTYAADFKRRFTFSLDTSKSTAYLQMNSLRAEDTAVYYCAKYPYYYGTSHWYFDVWGQGTLVTVSS
VL: DIQLTQSPSSLSASVGDRVTITCSASQDISNYLNWYQQKPGKAPKVLIYFTSSLHSGVPSRFSGSGSGTDFTLTISSLQPEDFATYYCQQYSTVPWTFGQGTKVEIKR
notes: also called M6
binding result: no binding (tested: 5 ug of rat serum)
